According to publication PMC8652540:

Target: SARS-CoV-2 nucleocapsid protein (NCAP, N protein) (SARS-CoV-2, UniProt P0DTC9 1-419)
Assay: EMSA
Details: protein: recombinant; tags: N-terminal GFP and His (N-GFP-NCAP-His, pET-28a(+)-TEV) as purified; EMSA text says only recombinant NCAP; chain copies: 2; single strand (legend says 24 bp)

Q: Does UGCUUACGGUUUCGUCCGUGUUGC (ssRNA) [5'UTR leader RNA probe] bind?
A: Result: binds
